Source: patent US6309839

How the values were obtained:
[1] = biological target: T1, gp41 helicase (bacteriophage T4?) (UniProt P04530); conditions: biotin at position 60, streptavidin-bound; streptavidin displacement rate at 4 uM gp41; 5 mM ATP, 12.5 mM Mg(OAc)2, 150 mM KOAc, pH 7.5, 37 C; none without ATP
T1 sequence: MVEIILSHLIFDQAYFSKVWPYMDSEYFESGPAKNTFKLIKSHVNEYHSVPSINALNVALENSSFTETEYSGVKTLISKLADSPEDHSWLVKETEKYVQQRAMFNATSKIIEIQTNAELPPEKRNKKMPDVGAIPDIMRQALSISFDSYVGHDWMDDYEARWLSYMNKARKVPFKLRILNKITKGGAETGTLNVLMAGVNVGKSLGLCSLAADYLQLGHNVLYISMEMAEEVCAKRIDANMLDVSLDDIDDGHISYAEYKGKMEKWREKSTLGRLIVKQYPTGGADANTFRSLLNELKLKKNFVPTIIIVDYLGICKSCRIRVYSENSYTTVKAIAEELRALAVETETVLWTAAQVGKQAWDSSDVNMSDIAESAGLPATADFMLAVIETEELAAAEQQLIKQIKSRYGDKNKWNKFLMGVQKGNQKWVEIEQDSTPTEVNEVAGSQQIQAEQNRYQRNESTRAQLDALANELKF

[2] = biological target: T2, Dda helicase (bacteriophage T4?) (UniProt P32270); conditions: biotin at position 60, streptavidin-bound; streptavidin displacement rate at 1 uM Dda, preincubated with DNA, 5 mM ATP, Mg2+
T2 sequence: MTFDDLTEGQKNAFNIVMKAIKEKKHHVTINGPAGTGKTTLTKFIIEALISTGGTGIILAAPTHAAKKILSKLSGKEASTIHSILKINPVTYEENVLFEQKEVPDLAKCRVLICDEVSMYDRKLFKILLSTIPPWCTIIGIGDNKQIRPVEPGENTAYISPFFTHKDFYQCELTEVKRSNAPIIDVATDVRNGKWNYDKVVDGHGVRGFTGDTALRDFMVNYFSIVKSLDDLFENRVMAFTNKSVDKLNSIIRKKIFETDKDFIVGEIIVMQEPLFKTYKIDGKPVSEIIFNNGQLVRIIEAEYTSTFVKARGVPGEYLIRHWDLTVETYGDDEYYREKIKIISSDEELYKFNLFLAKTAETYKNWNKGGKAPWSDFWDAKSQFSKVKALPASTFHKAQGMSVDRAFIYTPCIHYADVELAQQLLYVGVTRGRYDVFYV

[3] = biological target: NS3 helicase (full length) (Hepatitis C virus) (UniProt P26663); conditions: biotin at position 2, streptavidin-bound; streptavidin displaced from 5' end; 10 nM NS3, 100 nM oligonucleotide
NS3 helicase (full length) (Hepatitis C virus), sequence (P26663 1027-1657): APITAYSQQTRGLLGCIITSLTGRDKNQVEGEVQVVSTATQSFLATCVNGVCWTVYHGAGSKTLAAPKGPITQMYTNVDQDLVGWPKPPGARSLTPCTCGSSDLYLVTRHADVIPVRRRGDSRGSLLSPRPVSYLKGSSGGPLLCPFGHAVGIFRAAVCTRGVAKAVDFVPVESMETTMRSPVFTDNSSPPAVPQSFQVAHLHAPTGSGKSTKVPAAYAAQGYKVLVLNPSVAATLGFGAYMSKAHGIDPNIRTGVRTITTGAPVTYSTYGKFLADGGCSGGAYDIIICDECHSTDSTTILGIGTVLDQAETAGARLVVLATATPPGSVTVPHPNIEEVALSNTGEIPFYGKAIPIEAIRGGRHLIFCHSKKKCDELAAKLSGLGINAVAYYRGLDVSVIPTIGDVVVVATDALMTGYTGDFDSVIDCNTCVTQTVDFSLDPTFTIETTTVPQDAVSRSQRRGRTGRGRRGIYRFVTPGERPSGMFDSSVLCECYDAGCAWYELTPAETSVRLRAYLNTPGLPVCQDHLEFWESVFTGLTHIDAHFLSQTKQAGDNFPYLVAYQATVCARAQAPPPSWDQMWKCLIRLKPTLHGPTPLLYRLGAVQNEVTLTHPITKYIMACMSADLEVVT

Substance | activity [1] [min⁻¹] | activity [2] [s⁻¹] | activity (fold over spontaneous dissociation) [3]
3'-bio-61-mer (called 62-mer in text) | 0.17 | 7.9 | –
5'-bio-60-mer | – | – | > 100
